From patent publication US20210238260

Chain of Factor X, P00742 (P00742 whole entry, looked up): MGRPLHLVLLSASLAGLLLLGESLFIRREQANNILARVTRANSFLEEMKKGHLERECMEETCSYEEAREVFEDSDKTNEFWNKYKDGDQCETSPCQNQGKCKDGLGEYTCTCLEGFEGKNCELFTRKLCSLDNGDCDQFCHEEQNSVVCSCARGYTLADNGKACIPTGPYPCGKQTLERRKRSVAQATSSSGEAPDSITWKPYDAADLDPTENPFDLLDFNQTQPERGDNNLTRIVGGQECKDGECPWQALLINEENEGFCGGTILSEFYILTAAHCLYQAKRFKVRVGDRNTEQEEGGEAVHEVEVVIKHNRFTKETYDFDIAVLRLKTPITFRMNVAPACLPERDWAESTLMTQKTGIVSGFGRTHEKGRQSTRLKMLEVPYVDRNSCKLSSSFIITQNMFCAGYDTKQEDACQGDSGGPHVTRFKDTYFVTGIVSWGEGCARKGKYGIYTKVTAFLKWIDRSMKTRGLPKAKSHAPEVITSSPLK
Chain of Factor X (FX), P00742 (P00742 whole entry, looked up): as above

| Protein | % of WT kcat/KM (Factor X (FX), P00742) [%] | kcat (s^-1) of FX activation by FIXa variant in the Xase complex (FVIIIa, PC/PS vesicles, Ca2+), fluorogenic FXa read-out (Factor X (FX), P00742) [s⁻¹] | kcat/KM for FX activation (Xase: FVIIIa, PC/PS vesicles, Ca2+) (Factor X (FX), P00742) [M⁻¹ s⁻¹] | KM (Factor X, P00742) [µM] | catalytic activity (kcat/KM) for activation of FX (Factor X (FX), P00742) | % of WT kcat/KM (Factor X, P00742) [%] | kcat (Factor X, P00742) [s⁻¹] | kcat/KM (Factor X, P00742) [M⁻¹ s⁻¹] | KM (Factor X (FX), P00742) [µM] | kcat of FX activation by FIXa (Xase complex with FVIIIa, PC/PS vesicles, Ca2+) (Factor X (FX), P00742) [s⁻¹] |
| --- | --- | --- | --- | --- | --- | --- | --- | --- | --- | --- |
| FIXa-Y155F/K247N/N249S/R403E/E410N (protein) chain 1: YNSGKLEEFVQGNLERECMEEKCSFEEAREVFENTERTTEFWKQYVDGDQCESNPCLNGGSCKDDINSYECWCPFGFEGKNCELDVTCNIKNGRCEQFCKNSADNKVVCSCTEGYRLAENQKSCEPAVPFPCGRVSVSQTSKLTR chain 2: VVGGEDAKPGQFPWQVVLNGKVDAFCGGSIVNEKWIVTAAHCVETGVKITVVAGEHNIEETEHTEQNRSVIRIIPHHNYNAAINKYNHDIALLELDEPLVLNSYVTPICIADKEYTNIFLKFGSGYVSGWGRVFHKGRSALVLQYLRVPLVDRATCLRSTKFTIYNNMFCAGFHEGGRDSCQGDSGGPHVTEVEGTSFLTGIISWGEECAMKGKYGIYTKVSEYVNWIKNKTKLT | 53 | 2.7 | 2.4e+07 | 0.131 |  |  |  |  |  |  |
| FIXa-Y155F/R338E/T343R/E410N (protein) chain 1: YNSGKLEEFVQGNLERECMEEKCSFEEAREVFENTERTTEFWKQYVDGDQCESNPCLNGGSCKDDINSYECWCPFGFEGKNCELDVTCNIKNGRCEQFCKNSADNKVVCSCTEGYRLAENQKSCEPAVPFPCGRVSVSQTSKLTR chain 2: VVGGEDAKPGQFPWQVVLNGKVDAFCGGSIVNEKWIVTAAHCVETGVKITVVAGEHNIEETEHTEQKRNVIRIIPHHNYNAAINKYNHDIALLELDEPLVLNSYVTPICIADKEYTNIFLKFGSGYVSGWGRVFHKGRSALVLQYLRVPLVDRATCLESTKFRIYNNMFCAGFHEGGRDSCQGDSGGPHVTEVEGTSFLTGIISWGEECAMKGKYGIYTKVSRYVNWIKNKTKLT | 761 | 6 | 3.5e+08 | 0.0224 |  |  |  |  |  |  |
| FIXa-R318Y/R338E/T343R/E410N (protein) chain 1: YNSGKLEEFVQGNLERECMEEKCSFEEAREVFENTERTTEFWKQYVDGDQCESNPCLNGGSCKDDINSYECWCPFGFEGKNCELDVTCNIKNGRCEQFCKNSADNKVVCSCTEGYRLAENQKSCEPAVPFPCGRVSVSQTSKLTR chain 2: VVGGEDAKPGQFPWQVVLNGKVDAFCGGSIVNEKWIVTAAHCVETGVKITVVAGEHNIEETEHTEQKRNVIRIIPHHNYNAAINKYNHDIALLELDEPLVLNSYVTPICIADKEYTNIFLKFGSGYVSGWGRVFHKGYSALVLQYLRVPLVDRATCLESTKFRIYNNMFCAGFHEGGRDSCQGDSGGPHVTEVEGTSFLTGIISWGEECAMKGKYGIYTKVSRYVNWIKNKTKLT |  |  |  |  | displayed some of the greatest increases in catalytic activity | 728 | 4.9 | 3.4e+08 |  |  |
| FIXa-N260S/R318Y/R338E/T343R/R403E/E410N (protein) chain 1: YNSGKLEEFVQGNLERECMEEKCSFEEAREVFENTERTTEFWKQYVDGDQCESNPCLNGGSCKDDINSYECWCPFGFEGKNCELDVTCNIKNGRCEQFCKNSADNKVVCSCTEGYRLAENQKSCEPAVPFPCGRVSVSQTSKLTR chain 2: VVGGEDAKPGQFPWQVVLNGKVDAFCGGSIVNEKWIVTAAHCVETGVKITVVAGEHNIEETEHTEQKRNVIRIIPHHNYSAAINKYNHDIALLELDEPLVLNSYVTPICIADKEYTNIFLKFGSGYVSGWGRVFHKGYSALVLQYLRVPLVDRATCLESTKFRIYNNMFCAGFHEGGRDSCQGDSGGPHVTEVEGTSFLTGIISWGEECAMKGKYGIYTKVSEYVNWIKNKTKLT |  |  |  |  |  | 638 | 8.9 | 2.9e+08 | 0.0321 |  |
| FIXa-Y155F/R318Y/T343R/E410N (protein) chain 1: YNSGKLEEFVQGNLERECMEEKCSFEEAREVFENTERTTEFWKQYVDGDQCESNPCLNGGSCKDDINSYECWCPFGFEGKNCELDVTCNIKNGRCEQFCKNSADNKVVCSCTEGYRLAENQKSCEPAVPFPCGRVSVSQTSKLTR chain 2: VVGGEDAKPGQFPWQVVLNGKVDAFCGGSIVNEKWIVTAAHCVETGVKITVVAGEHNIEETEHTEQKRNVIRIIPHHNYNAAINKYNHDIALLELDEPLVLNSYVTPICIADKEYTNIFLKFGSGYVSGWGRVFHKGYSALVLQYLRVPLVDRATCLRSTKFRIYNNMFCAGFHEGGRDSCQGDSGGPHVTEVEGTSFLTGIISWGEECAMKGKYGIYTKVSRYVNWIKNKTKLT | 326 | 5 | 1.5e+08 | 0.0403 |  |  |  |  |  |  |
| FIXa-K228N/I251S/R318Y/R338E/R403E/E410N (protein) chain 1: YNSGKLEEFVQGNLERECMEEKCSFEEAREVFENTERTTEFWKQYVDGDQCESNPCLNGGSCKDDINSYECWCPFGFEGKNCELDVTCNIKNGRCEQFCKNSADNKVVCSCTEGYRLAENQKSCEPAVPFPCGRVSVSQTSKLTR chain 2: VVGGEDAKPGQFPWQVVLNGKVDAFCGGSIVNEKWIVTAAHCVETGVNITVVAGEHNIEETEHTEQKRNVSRIIPHHNYNAAINKYNHDIALLELDEPLVLNSYVTPICIADKEYTNIFLKFGSGYVSGWGRVFHKGYSALVLQYLRVPLVDRATCLESTKFTIYNNMFCAGFHEGGRDSCQGDSGGPHVTEVEGTSFLTGIISWGEECAMKGKYGIYTKVSEYVNWIKNKTKLT |  |  |  |  |  | 463 | 7.5 | 2.1e+08 | 0.0364 |  |
| FIXa-Y155F/K247N/N249S/R318Y/R338E/R403E (protein) chain 1: YNSGKLEEFVQGNLERECMEEKCSFEEAREVFENTERTTEFWKQYVDGDQCESNPCLNGGSCKDDINSYECWCPFGFEGKNCELDVTCNIKNGRCEQFCKNSADNKVVCSCTEGYRLAENQKSCEPAVPFPCGRVSVSQTSKLTR chain 2: VVGGEDAKPGQFPWQVVLNGKVDAFCGGSIVNEKWIVTAAHCVETGVKITVVAGEHNIEETEHTEQNRSVIRIIPHHNYNAAINKYNHDIALLELDEPLVLNSYVTPICIADKEYTNIFLKFGSGYVSGWGRVFHKGYSALVLQYLRVPLVDRATCLESTKFTIYNNMFCAGFHEGGRDSCQGDSGGPHVTEVEGTSFLTGIISWGEECAMKGKYGIYTKVSEYVNWIKEKTKLT |  |  |  |  |  | 206 |  | 9.5e+07 |  | 5.7 |
| FIXa-K247N/N249S/R318Y/R338E/R403E (protein) chain 1: YNSGKLEEFVQGNLERECMEEKCSFEEAREVFENTERTTEFWKQYVDGDQCESNPCLNGGSCKDDINSYECWCPFGFEGKNCELDVTCNIKNGRCEQFCKNSADNKVVCSCTEGYRLAENQKSCEPAVPFPCGRVSVSQTSKLTR chain 2: VVGGEDAKPGQFPWQVVLNGKVDAFCGGSIVNEKWIVTAAHCVETGVKITVVAGEHNIEETEHTEQNRSVIRIIPHHNYNAAINKYNHDIALLELDEPLVLNSYVTPICIADKEYTNIFLKFGSGYVSGWGRVFHKGYSALVLQYLRVPLVDRATCLESTKFTIYNNMFCAGFHEGGRDSCQGDSGGPHVTEVEGTSFLTGIISWGEECAMKGKYGIYTKVSEYVNWIKEKTKLT |  |  |  |  |  | 496 |  | 2.3e+08 |  | 10.5 |
| FIXa-Y155F/K247N/N249S/R318Y/R338E/T343R/R403E/E410N (protein) chain 1: YNSGKLEEFVQGNLERECMEEKCSFEEAREVFENTERTTEFWKQYVDGDQCESNPCLNGGSCKDDINSYECWCPFGFEGKNCELDVTCNIKNGRCEQFCKNSADNKVVCSCTEGYRLAENQKSCEPAVPFPCGRVSVSQTSKLTR chain 2: VVGGEDAKPGQFPWQVVLNGKVDAFCGGSIVNEKWIVTAAHCVETGVKITVVAGEHNIEETEHTEQNRSVIRIIPHHNYNAAINKYNHDIALLELDEPLVLNSYVTPICIADKEYTNIFLKFGSGYVSGWGRVFHKGYSALVLQYLRVPLVDRATCLESTKFRIYNNMFCAGFHEGGRDSCQGDSGGPHVTEVEGTSFLTGIISWGEECAMKGKYGIYTKVSEYVNWIKNKTKLT |  |  |  |  |  | 864 | 9.7 | 4e+08 | 0.0257 |  |
| FIXa-Y155F/R338E/T343R/R403E/E410N (protein) chain 1: YNSGKLEEFVQGNLERECMEEKCSFEEAREVFENTERTTEFWKQYVDGDQCESNPCLNGGSCKDDINSYECWCPFGFEGKNCELDVTCNIKNGRCEQFCKNSADNKVVCSCTEGYRLAENQKSCEPAVPFPCGRVSVSQTSKLTR chain 2: VVGGEDAKPGQFPWQVVLNGKVDAFCGGSIVNEKWIVTAAHCVETGVKITVVAGEHNIEETEHTEQKRNVIRIIPHHNYNAAINKYNHDIALLELDEPLVLNSYVTPICIADKEYTNIFLKFGSGYVSGWGRVFHKGRSALVLQYLRVPLVDRATCLESTKFRIYNNMFCAGFHEGGRDSCQGDSGGPHVTEVEGTSFLTGIISWGEECAMKGKYGIYTKVSEYVNWIKNKTKLT |  |  |  |  |  | 524 | 5.7 | 2.4e+08 | 0.0259 |  |
| FIXa-K247N/N249S/R318Y/R338E/T343R/R403E/E410N (protein) chain 1: YNSGKLEEFVQGNLERECMEEKCSFEEAREVFENTERTTEFWKQYVDGDQCESNPCLNGGSCKDDINSYECWCPFGFEGKNCELDVTCNIKNGRCEQFCKNSADNKVVCSCTEGYRLAENQKSCEPAVPFPCGRVSVSQTSKLTR chain 2: VVGGEDAKPGQFPWQVVLNGKVDAFCGGSIVNEKWIVTAAHCVETGVKITVVAGEHNIEETEHTEQNRSVIRIIPHHNYNAAINKYNHDIALLELDEPLVLNSYVTPICIADKEYTNIFLKFGSGYVSGWGRVFHKGYSALVLQYLRVPLVDRATCLESTKFRIYNNMFCAGFHEGGRDSCQGDSGGPHVTEVEGTSFLTGIISWGEECAMKGKYGIYTKVSEYVNWIKNKTKLT |  |  |  |  | improved activity when combined with other mutations | 824 | 10.6 | 3.8e+08 | 0.0292 |  |
| FIXa-Y155F/K228N/I251S/R318Y/R338E/R403E/E410N (protein) chain 1: YNSGKLEEFVQGNLERECMEEKCSFEEAREVFENTERTTEFWKQYVDGDQCESNPCLNGGSCKDDINSYECWCPFGFEGKNCELDVTCNIKNGRCEQFCKNSADNKVVCSCTEGYRLAENQKSCEPAVPFPCGRVSVSQTSKLTR chain 2: VVGGEDAKPGQFPWQVVLNGKVDAFCGGSIVNEKWIVTAAHCVETGVNITVVAGEHNIEETEHTEQKRNVSRIIPHHNYNAAINKYNHDIALLELDEPLVLNSYVTPICIADKEYTNIFLKFGSGYVSGWGRVFHKGYSALVLQYLRVPLVDRATCLESTKFTIYNNMFCAGFHEGGRDSCQGDSGGPHVTEVEGTSFLTGIISWGEECAMKGKYGIYTKVSEYVNWIKNKTKLT |  |  |  |  |  | 296 | 5.3 | 1.4e+08 | 0.0393 |  |
